One substance from paper PMC2901266 can be followed below.

Experiment [1] addresses ToLCKeV MBP-AC3 fusion protein (Tomato leaf curl Kerala virus-[India:Kerala II:2005]). As to the kind of experiment: sucrose gradient ultracentrifugation + SEC; 10-40% (w/v) sucrose step gradient, 25 mM Tris (pH 8.0), 250 mM NaCl, 2 mM sodium bisulphite, 0.05% Triton X-100, 35,000 rpm 20 h 4°C, against mass markers; gel filtration on Superdex 200 5/150.
Experiment [2] has as its target ToLCKeV MBP-AC1 fusion protein (replication initiator protein, Rep) (Tomato leaf curl Kerala virus-[India:Kerala II:2005]).

For the substance “ToLCKeV MBP-AC3 fusion protein (natural protein)”, the stoichiometry N in experiment [1] was in the range of 12 to 14 mer. The substance also registered an ATPase activity of AC1 (Rep), release of Pi from [gamma-32P]ATP, with varying MBP-AC3 (increase at 0.02-0.2 pM, reduced at higher AC3: bell shaped curve); increase over Rep alone set as 100% in experiment [2] of 80%.
